According to paper PMC10375638:

Biological target: T1, …3 (SEP3) fused to mVenus, expressed in N. benthamiana (Arabidopsis thaliana), O22456
T1 chain: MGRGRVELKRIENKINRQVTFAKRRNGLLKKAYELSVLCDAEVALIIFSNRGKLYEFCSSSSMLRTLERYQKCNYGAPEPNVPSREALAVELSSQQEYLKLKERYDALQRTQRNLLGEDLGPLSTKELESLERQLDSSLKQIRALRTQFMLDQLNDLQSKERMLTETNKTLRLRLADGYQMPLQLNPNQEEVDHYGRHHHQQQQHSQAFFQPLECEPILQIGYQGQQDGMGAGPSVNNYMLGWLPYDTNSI
Experiment: FRET or BRET; FLIM-FRET with one pattern analysis (OPA) in nuclei of transiently expressing N. benthamiana leaf epidermis cells; donor mVenus fusion, acceptor mCherry fusion; BINDING = relative amplitude of the FRET fraction; nucleoli excluded; FRET efficiency only for nuclei with BINDING above 10%
Settings: remark: other sources report otherwise

- BINDING: 28.1%
- FRET efficiency: 38.5%
B1: …3 (SEP3) fused to mVenus, expressed in N. benthamiana, O22456 1-251 (natural protein)
chain: MGRGRVELKRIENKINRQVTFAKRRNGLLKKAYELSVLCDAEVALIIFSNRGKLYEFCSSSSMLRTLERYQKCNYGAPEPNVPSREALAVELSSQQEYLKLKERYDALQRTQRNLLGEDLGPLSTKELESLERQLDSSLKQIRALRTQFMLDQLNDLQSKERMLTETNKTLRLRLADGYQMPLQLNPNQEEVDHYGRHHHQQQQHSQAFFQPLECEPILQIGYQGQQDGMGAGPSVNNYMLGWLPYDTNSI
